{"source": "paper PMC4116807", "about": "(Biochimica et biophysica acta, 2014)", "target": "the molecule itself", "test": "AUC"}
{"protein": "periplasmic sensor domain of the histidine kinase CusS (CusS 39-187) (domain or fragment, Escherichia coli W3110) VKVHFAEQDINDLKEISATLERVLNHPDETQARRLMTLEDIVSGYSNVLISLADSQGKTVYHSPGAPDIREFTRDAIPDKDAQGGEVYLLSGPTMMMPGHGHGHMEHSNWRMINLPVGPLVDGKPIYTLYIALSIDFHLHYINDLMNKLEGSS", "values": [{"measurement": "stoichiometry N", "result": 2}]}
